Patent US20230140200A1 (TRUSTEES OF COLUMBIA UNIVERSITY IN THE CITY OF NEW YORK, published 2023)

Columns and labels:
[1] = molecular target: T1, human transferrin receptor protein 1 (TfR1) (human, UniProt P02786 1-760); test: immunoprecipitation with 3F3-FMA from HT-1080 cell lysate and mass spectrometry; staining lost after siRNA knockdown of TfR1
T1 construct: whole, on cells; Endogenous full-length protein of human cell lines; no recombinant construct was used; also called transferrin receptor 1; CD71
Experimental: The beads were used for mass spectrometry.
Trypsin digestion was performed overnight at 37° C. Supernatants were collected and dried down in a speed-vac, and peptides were dissolved in a solution containing 3% acetonitrile and 0.1% formic acid. Peptides were desalted with C18 disk-packed stage-tips. Desalted peptides were injected onto an EASY-Spray PepMap RSLC C18 50 cm×75 μm column (Thermo Scientific), which was coupled to the Orbitrap Fusion Tribrid mass spectrometer (Thermo Scientific). Peptides were eluted with a non-linear 110 min gradient of 5-30% buffer B (0.1% (v/v) formic acid, 100% acetonitrile) at a flow rate of 250 nl/min. The column temperature was maintained at a constant 50° C. during all experiments. Thermo Scientific™ Orbitrap Fusion™ Tribrid™ mass spectrometer was used for peptide MS/MS analysis. Survey scans of peptide precursors were performed from 400 to 1575 m/z at 120K FWHM resolution (at 200 m/z) with a 2×10⁵ ion count target and a maximum injection time of 50 ms. […] CID fragmentation was applied with 35% collision energy and resulting fragments were detected using the rapid scan rate in the ion trap. […]
The antigen of 3F3-FMA was identified using immunoprecipitation and mass spectrometry. […] Then magnetic beads were added and washed, and bead-immobilized proteins were analyzed by mass spectrometry. […]

[2] = molecular target: T2, mouse TfR1 protein (mouse, UniProt Q62351 1-763); test: immunofluorescence on normal mouse liver frozen tissue sections
T2 construct: whole, on cells; Endogenous protein in mouse tissue sections
T2 sequence (Q62351 whole entry): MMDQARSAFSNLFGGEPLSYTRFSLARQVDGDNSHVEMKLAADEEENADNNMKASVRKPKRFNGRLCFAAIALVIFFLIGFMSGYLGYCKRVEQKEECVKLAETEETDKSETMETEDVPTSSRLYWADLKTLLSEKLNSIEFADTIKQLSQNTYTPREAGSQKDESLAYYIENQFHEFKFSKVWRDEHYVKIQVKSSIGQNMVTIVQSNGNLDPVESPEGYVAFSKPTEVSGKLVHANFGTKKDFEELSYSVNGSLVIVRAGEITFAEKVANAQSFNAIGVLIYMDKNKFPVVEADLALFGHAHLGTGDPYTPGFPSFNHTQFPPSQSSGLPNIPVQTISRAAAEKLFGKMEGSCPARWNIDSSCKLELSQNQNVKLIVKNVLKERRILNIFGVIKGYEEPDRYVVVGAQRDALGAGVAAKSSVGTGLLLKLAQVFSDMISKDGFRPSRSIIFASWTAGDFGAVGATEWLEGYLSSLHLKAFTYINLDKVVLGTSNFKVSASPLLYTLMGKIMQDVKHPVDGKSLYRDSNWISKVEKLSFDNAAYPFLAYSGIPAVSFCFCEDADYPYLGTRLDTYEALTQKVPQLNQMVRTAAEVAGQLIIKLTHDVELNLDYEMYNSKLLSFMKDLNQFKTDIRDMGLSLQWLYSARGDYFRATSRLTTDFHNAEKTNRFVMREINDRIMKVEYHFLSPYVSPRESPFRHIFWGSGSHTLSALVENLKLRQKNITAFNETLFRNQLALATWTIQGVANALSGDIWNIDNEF

T1 sequence (P02786 whole entry): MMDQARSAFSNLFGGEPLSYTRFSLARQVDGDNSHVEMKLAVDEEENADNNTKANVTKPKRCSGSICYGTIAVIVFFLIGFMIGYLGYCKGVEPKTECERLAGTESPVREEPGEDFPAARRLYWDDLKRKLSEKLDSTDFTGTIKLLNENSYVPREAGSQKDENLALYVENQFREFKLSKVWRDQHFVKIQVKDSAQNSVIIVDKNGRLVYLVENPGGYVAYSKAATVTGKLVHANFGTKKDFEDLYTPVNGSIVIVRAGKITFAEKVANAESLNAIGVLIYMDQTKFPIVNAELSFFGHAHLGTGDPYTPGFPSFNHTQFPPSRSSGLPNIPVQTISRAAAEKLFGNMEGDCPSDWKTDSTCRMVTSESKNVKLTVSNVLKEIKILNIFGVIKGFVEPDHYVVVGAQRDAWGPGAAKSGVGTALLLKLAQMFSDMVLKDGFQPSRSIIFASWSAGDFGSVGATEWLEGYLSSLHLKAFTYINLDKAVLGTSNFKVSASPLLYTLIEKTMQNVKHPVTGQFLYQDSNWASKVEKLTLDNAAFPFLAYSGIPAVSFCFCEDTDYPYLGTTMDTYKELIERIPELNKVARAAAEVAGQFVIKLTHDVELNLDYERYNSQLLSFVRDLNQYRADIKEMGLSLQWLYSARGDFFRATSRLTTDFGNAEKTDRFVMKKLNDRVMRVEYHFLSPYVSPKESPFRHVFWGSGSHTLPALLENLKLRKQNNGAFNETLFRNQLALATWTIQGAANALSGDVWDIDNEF

B1: 3F3 anti-Ferroptotic Membrane Antibody (3F3-FMA) (antibody, V domains shown)
VH: EVLLQQSGTELVRPGALVKLSCKASGFNIQDLYIHWVKQRPEQGLEWIGWIDPETDNTIYDPKFQGKASITADTSSNTAYLQLSSLTSEDTAMYYCSTGLLQWYFDVWGAGTAVTVSS
VL: DIVMTQSPSSLAMSIGQKVTMRCKSSQSLLNSYNQKNCLAWYQQKPGQSPKLLLYFVSTRESGVPDRFIGSGSGTDFTLTISSVQAEDLADYFCQQHYSTPLTFGAGTKLELK
notes: the entries 1 and 2 should match these; also called mAb 3F3 FMA; clone FH3F3
B1: binds [1]; binds [2].
